Consider one substance from paper PMC12058526.

The experiment concerns the target human endogenous fatty acid synthase (FASN) (human) (UniProt P49327). The experiment is described as follows: cryo-EM structure; purified endogenous FASN at 0.5-1.0 mg/ml in TBS buffer, alone or incubated 30 min with 1 mM orlistat or 3 mM 1,3-DBP; C2 symmetry applied; condensing and modifying wings refined separately.

“human endogenous fatty acid synthase (FASN), P49327 1-2511” registered a stoichiometry N of 2.
